B2: CED-4 apoptosome (natural protein, C. elegans)
chain: MLCEIECRALSTAHTRLIHDFEPRDALTYLEGKNIFTEDHSELISKMSTRLERIANFLRIYRRQASELGPLIDFFNYNNQSHLADFLEDYIDFAINEPDLLRPVVIAPQFSRQMLDRKLLLGNVPKQMTCYIREYHVDRVIKKLDEMCDLDSFFLFLHGRAGSGKSVIASQALSKSDQLIGINYDSIVWLKDSGTAPKSTFDLFTDILLMLKSEDDLLNFPSVEHVTSVVLKRMICNALIDRPNTLFVFDDVVQEETIRWAQELRLRCLVTTRDVEISNAASQTCEFIEVTSLEIDECYDFLEAYGMPMPVGEKEEDVLNKTIELSSGNPATLMMFFKSCEPKTFEKMAQLNNKLESRGLVGVECITPYSYKSLAMALQRCVEVLSDEDRSALAFAVVMPPGVDIPVKLWSCVIPVDICSNEEEQLDDEVADRLKRLSKRGALLSGKRMPVLTFKIDHIIHMFLKHVVDAQTIANGISILEQRLLEIGNNNVSVPERHIPSHFQKFRRSSASEMYPKTTEETVIRPEDFPKFMQLHQKFYDSLKNFACC
notes: CED-4, C. elegans; also called CED-4b; CED-4c; source: recombinantly expressed, obtained as previously reported (Qi et al, 2010), purified (SEC)

Key:
[1] = target: B2; assay: cryo-EM structure; CED-4/CED-3_CARD complex, assembled at 4°C for 1 h, purified by SEC in 20 mM HEPES pH 7.5, 10 mM KCl, 1.5 mM MgCl2, 1 mM EDTA, 1 mM DTT; about 2 uM; details: both partners purified
[2] = target: the molecule itself; assay: cryo-EM structure; CED-4 apoptosome alone (Apo dataset), low-salt sample, about 2 uM; 3D classification and refinement
[3] = target: the molecule itself; assay: cryo-EM structure; CED-4/CED-3_CARD complex, assembled at 4°C for 1 h, purified by SEC in 20 mM HEPES pH 7.5, 10 mM KCl, 1.5 mM MgCl2, 1 mM EDTA, 1 mM DTT; about 2 uM
[4] = target: the molecule itself; assay: cryo-EM structure; holoenzyme: ternary complex of CED-4, CED-3 CARD and CED-3 catalytic domain, assembled at 4°C for 1 h, purified by SEC in 20 mM HEPES pH 7.5, 10 mM KCl, 1.5 mM MgCl2, 1 mM EDTA, 1 mM DTT; about 2 uM
[5] = target: B2; assay: cryo-EM structure; CED-4/CED-3 catalytic complex: CED-4 incubated with CED-3 (198-503, C358A), assembled at 4°C for 1 h, purified by SEC in 20 mM HEPES pH 7.5, 10 mM KCl, 1.5 mM MgCl2, 1 mM EDTA, 1 mM DTT; about 2 uM; details: both partners purified

B1: WT CED-3 CARD (domain or fragment, C. elegans, UniProt P42573 1-91, looked up)
chain: MMRQDRRSLLERNIMMFSSHLKVDEILEVLIAKQVLNSDNGDMINSCGTVREKRREIVKAVQRRGDVAFDAFYDALRSTGHEGLAEVLEPL
notes: CED-3 CARD (caspase recruitment domain), C. elegans; source: E. coli BL21 (DE3), purified (Ni-NTA, Source-15Q anion exchange)
[1]
  stoichiometry N: 4 CED-3 CARDs per octameric CED-4 apoptosome

## B2
[2]
  stoichiometry N: 7
[3]
  stoichiometry N: 8
[4]
  stoichiometry N: 6

B3: CED-3 catalytic mutant (198–503, C358A) (domain or fragment, C. elegans, UniProt P42573 198-503, looked up)
chain: NRSFSKASGPTQYIFHEEDMNFVDAPTISRVFDEKTMYRNFSSPRGMCLIINNEHFEQMPTRNGTKADKDNLTNLFRCMGYTVICKDNLTGRGMLLTIRDFAKHESHGDSAILVILSHGEENVIIGVDDIPISTHEIYDLLNAANAPRLANKPKIVFVQAARGERRDNGFPVLDSVDGVPAFLRRGWDNRDGPLFNFLGCVRPQVQQVWRKKPSQADILIAYATTAQYVSWRNSARGSWFIQAVCEVFSTHAKDMDVVELLTEVNKKVACGFQTSQGSNILKQMPEMTSRLLKKFYFWPEARNSAV
notes: CED-3 catalytic domain, C. elegans, residues 198-503; also called CED-3 catalytic domain; catalytic mutant (C358A); source: expressed and purified as described previously (Huang et al, 2013)
[5]
  binding result: binds
